This test deals with plasminogen. Kind of test: cell-based or functional assay.

Some results are limits rather than exact numbers.

With “phage-displayed recombinant K2S (K2S-gp3 fusion protein on VCSM13 filamentous phage) (from UniProt P00750 209-562)”, the fibrinogen-dependent enzymatic activity (amidolytic assay with plasminogen and S-2251) was less than 0.25 IU/ml.

Values taken from patent EP1407030B1.
